Test: label from the status in PepcDB records
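Also: failed if final PepcDB status was selected cloned or expressed and not failed if soluble or beyond.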

## MNKRFFPRIDLPLLMAIIPIMLLSSLTLWSASGFDESMLFKHLARCALTLVCILVMSSIPAASYQRSAPYLYFVAVSLLLAVALFGDSTNGSQRWLDIGFFRFQPSELIKLSIPIMIAWMLHLEGGRPDFRKIALCLMITLVPAGLIALQPDLDGAIFTVIYALFVLFFAGMSWKIIGGFVVSVLTLAPILWFFVMEAYQKSRVTQFLHPESDPLGSGYQIIQSLIAIGSGGMKGKGWMNATQGTLGFIPESHTDFIFSTYAEEWGFIGCVVLLALYLFITARVMLLACQSEHFFSRLVSGTLAMSFFLYAFINTGMVSGLLPVMGSPLPFFSYGGTAMLTQGICFGVIMSLCYSKYRNT
  protein production: failed

## MSAATKQQCCARAEVPVRNLHSCDVFGLPAGGAFGRPRRDKENDMSLGTIILIILIIALLGGFTGVGGGPFYGTGYYGGGGLGLVIVILLILLLLGKI
  protein production: failed

## QRSTFGTKHMVFRTDQLIDGIERNVRITSEEVNAALPVPLLDRQDPGAILISGSSYTEPSEALQTMREAMTQEKFSGSVEIPLGIVRALLDLGFTDEAASWLEDLVPRLGNEWRHQWYSGVTSLLLDDYLTAQQHFNEVYNILPGESAPKLARAAVCEMLLQEKGLESTALLDPAVTVAAADIKGEGMSNIWRELTSDPATLRFKAIYLYALVWRTNPTTVSSAFGLARQLAAENQIDLAVSTLDRVPQNSTHRRMAELTAILHLLGDLSEARLRRAARRLEAIPTNEPRFLQIQIAIMNAALQWLRTGGEAANDPIFEYPFTQRGLRNGLSATLRQLARSAPSSHRYALVDVANQVRPMTWF
  protein production: not failed

## MCLPIHVKYDWFCRLCKTGRTLRPTSLQRGRAMASLTLRHLAGNTWLIPAPAAIGVYVRNGRAVLIDSGNDEEAGRQILKLLNGQGWTLDLIVNTHSNADHIGGNAFLQKKTGCRVAATVPEAAFIANPILEPSFLYGGYPVKALRNKFLMAKPSTVTDIIEAIGPILDTGLEAVPLAGHFFGMIGIRTPDGVLFAADSLFPETILAKYPIFYLYDIREHLASLQRLRELEAAIYVPSHGAPSPEILPLIEANEQRVRQTVSFVESCCTDAPASFETVLERVCGEYGIVLDPNQYVLVGNTIRSILAFLSEEGRLAMIFDGGRLLWGTAADQREA
  protein production: failed

## MTSVRGIAPLPSKKSSDRQKRLAMSTFERYLTLWVALCIVVGIGLGHLMPGAFQVIGAAEIAKVNLPVAALIWLMIIPMLVRIDFAALGRVREHWRGIGVTLFINWAVKPFSMAALAWLFVGYLFRPYLPADQINSYIAGLIILAAAPCTAMVFVWSNLTKGEPHFTLSQVALNDTIMVFAFAPIVGLLLGLSAITVPWDTLVLSVVLYIVVPVIIAQGLRRWALASGGEAQLQRLLGIFQPLSLVALLATLVLLFGFQGEQIIRQPLVIALLAVPILIQVYFNAGLAYLLNRLSGEQHCVAGPSALIGASNFFELAVAAAISLFGFESGAALATVVGVLIEVPVMLTVVAIVNRSKRWYEADQRAPVARTPG
  protein production: failed

## MVLAVLFPTYPAYEFAGYALPGVSTTLGVFSLTVLTNTVLFALAYPLVLGARNALTGNVSVVMFVGRRVAADDLATVHGSLLESSAGGFTRSGLDLDALRMYLRWRDCTLADLRSDPGLRHPDTLPDTPGDPTDGAVATDGSGDPWGAAAFLADIDHSAYGTTPAQLRDGLDLITDHDDVWVTPGVPFLLPLFAGLVVALTFGDVLFYVLDALGFAAA
  protein production: failed

## MENSGAYTFETIAREWHESNKRWSEDHRSRVLRYLELYIFPHIGSSDIRQLKTSHLLAPIKEVDTSGKHDVAQRLQQRVTAIMRYAVQNDYIDSNPASDMAGALSTTKARHYPLEHHHHHH
  protein production: not failed

## MESTLSQLLPEALATRRRALAQMITGLHLAEHVHLSKVAGRIAGTAQLESKTRHLRRFLGNENVDPERFYSPVRDRLIEWAAQGAETQGSGPIRLLVDTVELSGERQVLMAGIAYRRRALPICWETYRREGVTNAEQQISLLKALVGRFPDEAEVVVVGDGAFHSTDLMDFIEDQGWHFCLRLHADTYIRSFKDSSKGFPKEGTWKQLRDLVPEEGERRYLQDVIVTKDNEYGPVGLALCQAEDEDDP
  protein production: failed

## MVIIVSMKANGFFDEQSSLKKSKIGLNLVWMFSLGHIFLITLSNVLVQYPFDMMGFHTTWGAFTYPAIFILTDLTTRIATANKARKIIMLSMTPGLILSYLVASYIEAGNNLNESGLSVLHLMPLRIALACFIAYVVGQLLDVAVFQRYRNRPAWWLAPTLSAVAGNFIDTALFFTIAFYHCSNPFLSQNWPEIAMVDVFFKIMISLIAFVPVYGLVLSILGIKTTNKLMV
  protein production: failed

## MDRNLKIFITVMLILSVISQFLPFKRDAVSLINVITNLAAFMGLSYACIYSRKVYPHLYLTLLLLSAAQFFSFLGDFTWFILESILSLNPFPSVADLFYLLYYPIFAAGIFTIPIKRYSDLRSIIDLLIILVASASAAWVFLLEPTVFAGGDFTEVLVSTLYVLGDLLIVFMIMDLIINKLGHLRSRTLHVFLASIIILLAADISFTYQNLTGIYAGGTPQDLLWAFSYILLLIAVNEFFKEDWSKPLYVEKKVTAVTYTPYIFIILFYLLTAYSVIKGGAEKSTVLLVSLGFIIVLFILRQHLSMKENMALLNDVENERRRAENYLEVAGSLIMVLDEKTRVKLINRRGLEILECDAGEVAGKNWFMTFVPPEDRGWREKLYTEKISSGSKGYHLTGEILTCKGDRKTVTWHVVFLREDGEFRGSIISGDDITELQRATRALEMSEMRYREIFELAPSPIISVGDDLIIRDCNRRAESVLGYQRGELIGRNLMDLIHPEDAGEDFEGERRLLRSNGDVIYADIGVARVGDERIIIIEDQTEIRRSLQEKELLLREIHHRVKNNLQIISSLLSIQERQLESEELSDVLRESRERIRSIALVHEHLYRSTNLRTIRIRNYLNNILSKLSQGQTHGKDVRISSSIEDLEFNLETSLPIGLMVNELVSNSLKHSGADNITVELRSLNGTLELTVKDDGIGLESPEVLEKSGSMGWYLIRALTDQLDGELKIETEDGLSVSLRFRELGYRERY
  protein production: failed

## MSTYLIGDIHGCLDELLALLAQVNFDPQQDTLWLTGDLVARGPASLDVLRYVRSLGPAVRMVLGNHDLHLLAVYAGISRNKPKDRITPLLDAPDADELINWLRRQPVLQVDDQLKLIMAHAGITPQWDIETAKMCAREVEAVLSSDSYPLFLDAMYGDMPNNWSPELTGLARLRFSTNALTRMRFCFPNGQLDMICKDTPENAPAPLKPWFDLPRLVDPEYSIIFGHWASLEGKGVPEGIYGLDTGCCWGGDLTLLRWDDKRYFTQRAFKAEAEINNNNGFAAGEAVQH
  protein production: failed

## MEIEYIKDYRDINQEDDTVLILGYFDGLHRGHKALFDKAREVANKEGLKVVVFTFTESPKLAFSRFSPELLLHITYPKKRYEKFADYGVNKLYLVDFTSKFSKVSSDHFITHYIKNLKAKHIVVGFDYKFGHNRTDSDYLTRNFEGQVYTIEEIKEDHRKISATWIRKLIQEGNVVKANHLLGYDLSTRGRVVHGDARGRTIGFPTANLAPIDNTYLPADGVYVTNVIVANKIYRSMTSLGKNVTFGGKELRLEVNIFDFDEEIYGEIIEIVWLDKIRDMEKFEGIEDLTDRLEYDKRTALNWKKDSKLS
  protein production: failed

## MERAVVQRARPLARRPLVTLLTAAALAASGLTALTSAARAADADLARNGGFESALDGWTCTAGTTVTSPVHGGTSALKATPAGADNARCSQTVSVKPDSPYTLSGYVRGTYVYLGASGTGTTDVSTWAQSAPDWQQLTTTFRTGPSTTRVTIYTHGWYGTGAYHADDISLTGPGGETQQPPAVPGGLKTGSVTSSAVALSWSPVPGATGYAVYRDGAKVSTVTGTSTTVTGLTPSTAYSFQVTAVNDAGESARSATVTATTAQRPDDGGGSSDLPAHALVGYLHASFANGSGYTRMADVPDSWDVIDLAFGEPTSVTSGDIRFERCPVAECPNVESDAEFKAAIKAKQAAGKKVLISIGGQNGQVQLTSTAARDKFVSSVSAIIDEYGLDGLDIDFEGHSLSLNADDTDFKNPKTPVIVNLVSAVKTLKAKYGDGFVLTMAPETFFVQLGYQYYGTGKWGGQDPRAGAYLPVIHALRDDLTLLHVQDYNSGSIMGLDNQYHSMGGADFHIAMTDMLLTGFPVAGDANNVFPPLRPDQVAIGMPASTQAGNGHVSPAEVTKALNCLTKKTDCGSYATHGTWPDLRGLMTWSINWDRYSNWEFQKNFDAYFG
  protein production: failed

## MENLLARLLFAQWFPGLIQLKNYQKEWLVNDFRAAFSVVAVALPVAIAYAQLTGVSAIVGLYSCVLPMLVYALMGTSRQLIVGPDAATCAVIAAVVTPIAAGDPTKHWQLVMTMTAMTGIWCVLASRFKLGIFADFLSRPILLGLLNGVALTIIVGQFAKVVGLKYEQRYLLERLWEAPQRLAELHWPTVALSVATVVVYLVTKRYRPTWPAAMLAILVTTASVWLLHLQEMDVAVVGLTQGGFPQFQAPQFELGEVRELVVPALNLAIVSFVSMMLTARSFAAKNGYDIDANKEFQALGFANIASAFSQGFAISGADSRTAVNDANGGKSQLVSIVAAITIAIIAVFIYEPLQFIPIASLGVVLIIASLSLLDLKAIWILKTRDKDAFYLAIITFISVLVIGVIPGITLAVLLGLFQFLRIVMRPSDQLLGLDEKGTIRTIDETGKASPIPGMVIYRFNSPLTYFNAPYFKRRLLEHAEQNKDVSCVVVDAVSSFTHLDLSVMATLADIHEVLKKRGIRLVLAGRKRRLRQWCELTGISTSEGGILLRADMYLAIKLSGSYLSAVGEGIVPTVQKEPDLEQPPKPIPEVA
  protein production: failed

## MSKVCQVTGKRPVVGNNVSHANNKTKRRFEPNLHHHRFWLESEKRFVRLRLTTKGMRIIDKLGIEKVVADLRAQGQKI
  protein production: failed

## MKKKNKLLFILGIIGPGLITVNAGNDAGGIATYATVGASYGYKMLWGLLLITFSLAIIQEMNARMAVVTGKGLSDLIRENYGVKWSLFAMCILFIANFGVCVGDFAGIAASLELFGISKYITVPIMAFLVWFVITKGSYEKTEKVFLAFTFVFFTYIITCIKVHPNWNVVMKATITPSLSFTKGYVLTLIGMIGTTITPYMQFYLQSSVVDKGLSVKEYKYEKIDVYLGAIWGDLVSFFIIVCTAVTLYKAGIKIDSAEQAAMALKPLAGNYATILFAAGLFGASVLATMVIPLSTTYAICEAFGFESGLDNSFSEAKTFYGIFTFMILFSAALVLVPKLSLVGIMLITQQIAGILSPVILIFMVLLINNKDIMGKYINNKLQNVIVYLTVAFIIILSLILFVSPIIDKLM
  protein production: failed

## MPVGIIGHYRCGEHNMGEHHPENGKRLTAISDQLIRSGLDYVVRQFDSKPIDKSLLALAHTQEHIDFVFDNAPNEGEENFTVGEDSVMNEKTLTSIMYSAGAAVDAVDLVMEGTLGAAFCATRPPGHHAEHDKGMGFCFFNNVAVAAAYAKQKYGLKRVAIVDFDVHHGNGTEDIITNHFNATPEDDKGYLFCSSYQYPLYPFEIQESDTPPIINTPLAATTKGEQFREKLTAHWLPALHKFKPELILISAGFDAHIEDEMSHVSLTEADYRWITDELKIIAEEYGKGRIVSVLEGGYAPSALGRSVVAHVNGLIGN
  protein production: failed

## MATKRANGEGSIGKYKDGWRSRIMIGYNEDGKPLRKEFYGKTQKEVKDKLDAYKKQYYLSSDISDDKITLEHWFYNWLFEYRIKDLKPKSFERYESIYRNYIKDTDLGNVKLKYLRVSHIQKYYNRLLDSNKSIPTIRQINTKLKTCLSEAEKQGLIQRNYCTMVNIPVEKKENKLEILTLEQQKSFIKAIDGHKLEVLFLLALGTGLRLGELLGLKWFDIDFKKSNLTVKRTLQRTYFIDKTGNRELKVLEQGPKTSNSYRTVPIPKDVLNKLKEHKVNQNTDILKAGELYINNNYVFCNELGIPIDDKRPLRNLKSILNSLNIEPIKFHGLRKTYATRLFENDVPPKTVQVLMGHYDISITLNIYTQVMEDKKVEAVEKLDKIFSL
  protein production: failed

From a protein production outcome set (Wang et al. 2014)
